IntAct's records for PubMed 35512704

B1: Mothers against decapentaplegic homolog 4 (Homo sapiens), Q13485 (parent)
chain: MDNMSITNTPTSNDACLSIVHSLMCHRQGGESETFAKRAIESLVKKLKEKKDELDSLITAITTNGAHPSKCVTIQRTLDGRLQVAGRKGFPHVIYARLWRWPDLHKNELKHVKYCQYAFDLKCDSVCVNPYHYERVVSPGIDLSGLTLQSNAPSSMMVKDEYVHDFEGQPSLSTEGHSIQTIQHPPSNRASTETYSTPALLAPSESNATSTANFPNIPVASTSQPASILGGSHSEGLLQIASGPQPGQQQNGFTGQPATYHHNSTTTWTGSRTAPYTPNLPHHQNGHLQHHPPMPPHPGHYWPVHNELAFQPPISNHPAPEYWCSIAYFEMDVQVGETFKVPSSCPIVTVDGYVDPSGGDRFCLGQLSNVHRTEAIERARLHIGKGVQLECKGEGDVWVRCLSDHAVFVQSYYLDREAGRAPGDAVHKIYPSAYIKVFDLRQCHRQMQQQAATAQAAAAAQAAAVAGNIPGPGSVGGIAPAISLSAAAGIGVDDLRRLCILRMSFVKGWGPDYPRQSIKETPCWIEIHLHRALQLLDEVLHTMPIADPQPLD
partner: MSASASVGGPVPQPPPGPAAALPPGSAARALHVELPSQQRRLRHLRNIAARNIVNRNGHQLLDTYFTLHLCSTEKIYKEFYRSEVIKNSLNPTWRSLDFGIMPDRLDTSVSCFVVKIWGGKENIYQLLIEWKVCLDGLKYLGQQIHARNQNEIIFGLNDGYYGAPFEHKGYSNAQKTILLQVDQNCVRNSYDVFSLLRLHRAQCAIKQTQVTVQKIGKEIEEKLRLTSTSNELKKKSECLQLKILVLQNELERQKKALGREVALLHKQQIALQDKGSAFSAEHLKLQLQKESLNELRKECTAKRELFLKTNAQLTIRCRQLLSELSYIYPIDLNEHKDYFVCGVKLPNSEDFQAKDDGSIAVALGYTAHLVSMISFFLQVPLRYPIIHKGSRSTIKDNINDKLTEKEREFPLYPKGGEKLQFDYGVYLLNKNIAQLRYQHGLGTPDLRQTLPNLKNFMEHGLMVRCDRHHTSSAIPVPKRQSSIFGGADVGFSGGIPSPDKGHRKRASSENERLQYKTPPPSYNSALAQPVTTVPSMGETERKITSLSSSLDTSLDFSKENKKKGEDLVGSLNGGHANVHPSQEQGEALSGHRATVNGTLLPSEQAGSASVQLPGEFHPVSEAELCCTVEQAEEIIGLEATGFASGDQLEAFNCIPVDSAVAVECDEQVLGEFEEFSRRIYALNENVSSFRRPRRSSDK
B2: Mothers against decapentaplegic homolog 4 (Homo sapiens), Q13485 (parent)
chain: B1 chain
partner: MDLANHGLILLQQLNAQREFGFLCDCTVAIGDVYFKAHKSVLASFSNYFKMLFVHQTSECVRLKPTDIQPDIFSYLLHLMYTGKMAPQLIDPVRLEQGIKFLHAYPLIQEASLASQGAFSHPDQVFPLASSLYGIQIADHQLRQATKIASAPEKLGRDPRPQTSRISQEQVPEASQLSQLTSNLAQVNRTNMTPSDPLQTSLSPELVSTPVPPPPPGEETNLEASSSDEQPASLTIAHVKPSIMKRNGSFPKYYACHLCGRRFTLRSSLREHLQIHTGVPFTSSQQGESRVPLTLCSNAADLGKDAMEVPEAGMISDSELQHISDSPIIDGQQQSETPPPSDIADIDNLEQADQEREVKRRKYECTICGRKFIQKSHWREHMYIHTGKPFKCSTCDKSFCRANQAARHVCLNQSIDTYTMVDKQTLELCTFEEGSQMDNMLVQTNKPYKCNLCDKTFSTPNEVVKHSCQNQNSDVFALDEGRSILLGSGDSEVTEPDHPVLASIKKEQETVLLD
B3: Mothers against decapentaplegic homolog 4 (Homo sapiens), Q13485 (parent)
chain: B1 chain
partner: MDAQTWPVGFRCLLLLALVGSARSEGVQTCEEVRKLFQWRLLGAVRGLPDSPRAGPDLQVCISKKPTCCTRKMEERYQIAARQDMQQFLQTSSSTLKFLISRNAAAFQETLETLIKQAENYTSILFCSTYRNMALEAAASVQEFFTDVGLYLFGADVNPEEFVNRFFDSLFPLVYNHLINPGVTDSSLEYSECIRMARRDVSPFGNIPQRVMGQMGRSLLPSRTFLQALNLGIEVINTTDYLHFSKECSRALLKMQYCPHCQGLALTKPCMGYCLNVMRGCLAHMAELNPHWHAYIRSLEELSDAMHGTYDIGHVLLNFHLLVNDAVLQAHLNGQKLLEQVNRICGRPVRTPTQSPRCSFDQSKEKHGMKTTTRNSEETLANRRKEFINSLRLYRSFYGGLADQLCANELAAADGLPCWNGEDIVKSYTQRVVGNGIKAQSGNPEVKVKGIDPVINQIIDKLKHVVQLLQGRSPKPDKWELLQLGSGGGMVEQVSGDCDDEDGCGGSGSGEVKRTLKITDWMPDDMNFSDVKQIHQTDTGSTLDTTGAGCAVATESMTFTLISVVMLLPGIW
B4: Mothers against decapentaplegic homolog 4 (Homo sapiens), Q13485 (parent)
chain: B1 chain
partner: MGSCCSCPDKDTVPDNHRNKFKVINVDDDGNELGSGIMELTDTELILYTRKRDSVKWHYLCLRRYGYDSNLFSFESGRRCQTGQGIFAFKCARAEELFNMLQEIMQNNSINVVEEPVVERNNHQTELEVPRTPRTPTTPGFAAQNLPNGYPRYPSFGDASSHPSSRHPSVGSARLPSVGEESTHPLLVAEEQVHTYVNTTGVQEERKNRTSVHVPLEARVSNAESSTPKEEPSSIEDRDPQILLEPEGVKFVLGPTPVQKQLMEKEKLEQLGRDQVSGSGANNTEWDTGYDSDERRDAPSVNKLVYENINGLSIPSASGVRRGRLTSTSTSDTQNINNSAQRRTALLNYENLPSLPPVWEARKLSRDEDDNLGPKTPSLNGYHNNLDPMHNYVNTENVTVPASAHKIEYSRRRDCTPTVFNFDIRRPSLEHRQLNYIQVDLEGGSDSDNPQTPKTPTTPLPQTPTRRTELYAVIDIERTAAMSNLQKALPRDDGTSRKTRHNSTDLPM
B5: Mothers against decapentaplegic homolog 4 (Homo sapiens), Q13485 (parent)
chain: B1 chain
partner: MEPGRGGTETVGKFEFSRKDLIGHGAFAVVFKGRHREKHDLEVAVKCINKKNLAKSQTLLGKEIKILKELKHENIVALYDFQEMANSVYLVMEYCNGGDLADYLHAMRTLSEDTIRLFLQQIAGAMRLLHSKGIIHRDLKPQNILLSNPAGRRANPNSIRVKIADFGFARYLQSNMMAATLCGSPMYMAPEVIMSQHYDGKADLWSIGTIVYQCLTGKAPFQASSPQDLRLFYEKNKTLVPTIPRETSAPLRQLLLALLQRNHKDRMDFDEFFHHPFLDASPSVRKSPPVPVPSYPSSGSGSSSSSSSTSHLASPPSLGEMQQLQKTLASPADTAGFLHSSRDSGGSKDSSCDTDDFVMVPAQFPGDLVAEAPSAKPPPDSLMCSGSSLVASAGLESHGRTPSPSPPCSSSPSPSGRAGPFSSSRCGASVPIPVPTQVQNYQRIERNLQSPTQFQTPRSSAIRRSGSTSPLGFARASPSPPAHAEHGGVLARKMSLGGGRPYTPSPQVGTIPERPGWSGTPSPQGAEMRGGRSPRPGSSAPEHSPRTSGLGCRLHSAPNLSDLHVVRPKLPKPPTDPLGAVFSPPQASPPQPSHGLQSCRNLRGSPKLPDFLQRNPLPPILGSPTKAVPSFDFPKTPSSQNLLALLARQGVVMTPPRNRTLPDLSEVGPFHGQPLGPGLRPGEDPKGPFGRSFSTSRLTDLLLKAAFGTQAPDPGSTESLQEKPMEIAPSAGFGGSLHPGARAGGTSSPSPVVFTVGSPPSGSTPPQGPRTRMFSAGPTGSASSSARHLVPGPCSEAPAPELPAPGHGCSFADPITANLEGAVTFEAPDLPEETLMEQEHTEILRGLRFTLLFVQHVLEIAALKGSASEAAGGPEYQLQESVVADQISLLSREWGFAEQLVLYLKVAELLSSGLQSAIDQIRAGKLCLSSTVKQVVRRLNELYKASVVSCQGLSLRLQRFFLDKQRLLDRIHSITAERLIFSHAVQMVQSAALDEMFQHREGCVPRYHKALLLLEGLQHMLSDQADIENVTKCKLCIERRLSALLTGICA
B6: Mothers against decapentaplegic homolog 4 (Homo sapiens), Q13485 (parent)
chain: B1 chain
partner: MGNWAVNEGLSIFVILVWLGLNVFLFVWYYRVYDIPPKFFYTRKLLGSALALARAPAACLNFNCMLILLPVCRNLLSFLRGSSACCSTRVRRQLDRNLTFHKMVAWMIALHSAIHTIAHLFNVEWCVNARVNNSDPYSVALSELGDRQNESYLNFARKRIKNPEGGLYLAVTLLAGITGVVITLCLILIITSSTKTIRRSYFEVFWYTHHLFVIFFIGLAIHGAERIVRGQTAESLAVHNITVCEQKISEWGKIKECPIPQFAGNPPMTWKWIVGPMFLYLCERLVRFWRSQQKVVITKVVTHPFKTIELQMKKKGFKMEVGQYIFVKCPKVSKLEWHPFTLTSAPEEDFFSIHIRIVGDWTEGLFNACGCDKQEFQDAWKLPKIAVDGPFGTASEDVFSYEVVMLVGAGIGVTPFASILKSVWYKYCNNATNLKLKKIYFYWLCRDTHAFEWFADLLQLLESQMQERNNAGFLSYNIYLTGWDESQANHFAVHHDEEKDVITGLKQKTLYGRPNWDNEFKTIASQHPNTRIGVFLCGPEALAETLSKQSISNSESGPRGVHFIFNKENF
B7: Mothers against decapentaplegic homolog 4 (Homo sapiens), Q13485 (parent)
chain: B1 chain
partner: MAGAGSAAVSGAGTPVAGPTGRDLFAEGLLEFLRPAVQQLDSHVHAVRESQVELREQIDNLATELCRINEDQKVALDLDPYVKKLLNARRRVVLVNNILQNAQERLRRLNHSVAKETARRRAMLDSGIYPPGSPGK
B8: Mothers against decapentaplegic homolog 4 (Homo sapiens), Q13485 (parent)
chain: B1 chain
partner: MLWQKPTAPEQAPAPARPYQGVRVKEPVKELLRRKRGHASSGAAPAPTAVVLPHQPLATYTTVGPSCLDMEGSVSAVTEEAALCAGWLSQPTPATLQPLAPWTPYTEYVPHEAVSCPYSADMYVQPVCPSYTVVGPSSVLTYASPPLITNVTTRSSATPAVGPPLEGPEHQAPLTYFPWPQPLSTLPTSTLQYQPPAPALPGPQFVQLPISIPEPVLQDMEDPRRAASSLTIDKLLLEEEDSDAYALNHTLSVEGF

Variants of: B1
Settings: with uvrag_human UVRAG

Row | effect of a mutation on the interaction | Variant
1 | with no effect | G386D

Variants of: B2
Settings: with zbtb2_human ZBTB2, Q8N680

Row | effect of a mutation on the interaction | Variant
2 | with no effect | R361H

Variants of: B3
Settings: with gpc5_human GPC5, P78333

Row | effect of a mutation on the interaction | Variant
3 | with no effect | G386D

Variants of: B3
Settings: with gpc5_human GPC5, P78333
Remark: another data set of the same source

Row | effect of a mutation on the interaction | Variant
4 | increasing interaction strength | G386D

Variants of: B3
Settings: with gpc5_human GPC5, P78333
Remark: another data set of the same source

Row | effect of a mutation on the interaction | Variant
5 | with no effect | R361H

Variants of: B3
Settings: with gpc5_human GPC5, P78333
Remark: another data set of the same source

Row | effect of a mutation on the interaction | Variant
6 | with no effect | R361C

Variants of: B4
Settings: with frs2_human FRS2, Q8WU20

Row | effect of a mutation on the interaction | Variant
7 | with no effect | R361H

Variants of: B4
Settings: with frs2_human FRS2, Q8WU20
Remark: another data set of the same source

Row | effect of a mutation on the interaction | Variant
8 | with no effect | R361C

Variants of: B5
Settings: with ulk1_human ULK1, O75385

Row | effect of a mutation on the interaction | Variant
9 | with no effect | D351H

Variants of: B5
Settings: with ulk1_human ULK1, O75385
Remark: another data set of the same source

Row | effect of a mutation on the interaction | Variant
10 | with no effect | R361C

Variants of: B5
Settings: with ulk1_human ULK1, O75385
Remark: another data set of the same source

Row | effect of a mutation on the interaction | Variant
11 | with no effect | R361H

Variants of: B5
Settings: with ulk1_human ULK1, O75385
Remark: another data set of the same source

Row | effect of a mutation on the interaction | Variant
12 | with no effect | G386D

Variants of: B6
Settings: with cy24b_human CYBB

Row | effect of a mutation on the interaction | Variant
13 | with no effect | R361H

Variants of: B7
Settings: with snapn_human SNAPIN

Row | effect of a mutation on the interaction | Variant
14 | with no effect | R361H

Variants of: B8
Settings: with obf1_human POU2AF1, Q16633

Row | effect of a mutation on the interaction | Variant
15 | with no effect | G386D

Variants of: B8
Settings: with obf1_human POU2AF1, Q16633
Remark: another data set of the same source

Row | effect of a mutation on the interaction | Variant
16 | increasing interaction strength | G386D
